Patent US20150197564A1 (Regeneron, published 2015)

Assays:
MfANGPTL3(17-170)-mmH = target: T1, MfANGPTL3(17-170)-mmH (Macaca fascicularis); assay: SPR Biacore, antigen captured, 25C, pH 5.75, PBSP
T1 construct: also called N-terminal coiled-coil domain of ANGPTL3 from Macaca fascicularis with myc-myc-hexahistidine tag; Monkey ANGPTL3 (17-170)-mmH
T1 chain: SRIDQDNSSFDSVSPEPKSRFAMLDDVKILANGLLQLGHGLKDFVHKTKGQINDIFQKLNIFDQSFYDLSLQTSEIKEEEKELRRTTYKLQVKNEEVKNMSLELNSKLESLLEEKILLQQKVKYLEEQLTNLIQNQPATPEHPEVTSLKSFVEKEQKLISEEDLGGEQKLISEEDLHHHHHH
Protocol: (§1) All kinetic binding experiments were performed at 25° C. or 37° C. on a BIACORE™ T200 label-free molecular interaction instrument (GE Healthcare) using a CM5 sensor chip. Briefly, an antigen capture surface was generated by covalently coupling either an anti-mouse IgG-specific antibody (anti-mFc; GE Healthcare; catalog #BR-1008-38) or an anti-pentahistidine-specific antibody (Qiagen; catalog #34660) to the surface of a CM5 sensor chip using a standard amine coupling method.

hANGPTL3(17-460)-His [1] = target: T2, hANGPTL3(17-460)-His (human, UniProt Q9Y5C1 17-460); assay: SPR Biacore, antigen captured, 25C, pH 5.75, PBSP
T2 construct: Bought protein (R&D Systems); also called full-length mature human ANGPTL3 with a C-terminal decahistidine tag; Human ANGPTL3 (17-460)-His
T2 sequence: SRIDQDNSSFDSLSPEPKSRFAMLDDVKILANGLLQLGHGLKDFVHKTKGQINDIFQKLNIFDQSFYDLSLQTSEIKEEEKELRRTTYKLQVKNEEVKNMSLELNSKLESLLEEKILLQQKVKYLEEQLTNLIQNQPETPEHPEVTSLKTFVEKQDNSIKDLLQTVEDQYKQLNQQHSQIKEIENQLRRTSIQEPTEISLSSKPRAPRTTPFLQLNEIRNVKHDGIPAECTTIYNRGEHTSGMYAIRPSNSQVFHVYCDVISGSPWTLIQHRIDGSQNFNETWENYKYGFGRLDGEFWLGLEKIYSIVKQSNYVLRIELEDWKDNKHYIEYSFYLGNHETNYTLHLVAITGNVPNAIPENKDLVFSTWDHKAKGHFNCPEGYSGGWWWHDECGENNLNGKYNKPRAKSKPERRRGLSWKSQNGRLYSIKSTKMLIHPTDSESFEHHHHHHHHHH
Protocol: as §1

hANGPTL3(17-170)-His = target: T3, hANGPTL3(17-170)-His (human, UniProt Q9Y5C1 17-170); assay: SPR Biacore, antigen captured, 25C, pH 5.75, PBSP
T3 construct: also called N-terminal coiled-coil domain of hANGPTL3 with a C-terminal hexahistidine tag; Human ANGPTL3 (17-170)-His
T3 sequence: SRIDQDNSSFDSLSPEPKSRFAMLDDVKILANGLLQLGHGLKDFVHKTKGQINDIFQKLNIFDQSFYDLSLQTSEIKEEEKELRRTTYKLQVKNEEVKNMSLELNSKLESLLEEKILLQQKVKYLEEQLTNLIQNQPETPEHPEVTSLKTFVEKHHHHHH
Protocol: as §1

[2] = target: T4, N-terminal biotin tagged Peptide 1 (human, N-terminal biotin tag); assay: OCTET RED label-free biosensor; biotinylated peptide on streptavidin-coated tips dipped into 1 uM antibody, binding monitored for 2.5 minutes
T4 construct: Immobilised on streptavidin biosensor tips; also called control ANGPTL4 peptide; hANGPTL4 peptide
T4 peptide: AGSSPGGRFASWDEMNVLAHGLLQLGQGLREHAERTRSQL
Protocol: To assess the binding of the anti-ANGPTL3 antibody H4H1276S to peptides derived from the N-terminal coiled-coil region of ANGPTL3, a label-free biosensor binding assay was performed using OCTET® RED system (ForteDo, Inc.). […] The peptide-coated biosensor tips were then dipped into wells containing 1 μM of either anti-ANGPTL3 antibody H4H1276S or an isotype-matched negative control antibody, and binding was monitored for 2.5 minutes. It was observed that H4H1276S binds to the ANGPTL3 linear sequence defined by Peptide 2 but not the overlapping but distinct sequence defined by Peptide 3 (see also FIG. 1). The isotype control antibody also served as a positive control for loading of Peptide 1 (i.e., hANGPTL4 peptide) onto the biosensor, because this isotype control antibody specifically recognizes hANGPTL4.

hANGPTL3(17-460)-His [3] = target: T2, hANGPTL3(17-460)-His; assay: SPR Biacore, antigen captured, 25C, pH 7.4, HBS-EP
Protocol: as §1

hANGPTL3(17-169)-mFc = target: T5, hANGPTL3(17-169)-mFc (human); assay: SPR Biacore, antigen captured, 25C, pH 7.4, HBS-EP
T5 construct: also called N-terminal coiled-coil domain of hANGPTL3 with a C-terminal mouse Fc fusion
T5 chain: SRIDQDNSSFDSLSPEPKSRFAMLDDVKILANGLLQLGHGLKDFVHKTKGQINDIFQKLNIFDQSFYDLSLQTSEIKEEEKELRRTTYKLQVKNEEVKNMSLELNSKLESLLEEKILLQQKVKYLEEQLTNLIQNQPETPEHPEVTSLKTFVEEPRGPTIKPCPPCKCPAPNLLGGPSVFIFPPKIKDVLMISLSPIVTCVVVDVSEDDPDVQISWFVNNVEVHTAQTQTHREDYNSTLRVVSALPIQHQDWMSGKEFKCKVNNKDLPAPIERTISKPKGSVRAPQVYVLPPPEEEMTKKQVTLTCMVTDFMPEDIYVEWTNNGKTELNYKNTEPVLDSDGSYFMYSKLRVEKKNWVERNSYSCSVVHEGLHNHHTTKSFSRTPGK
Protocol: as §1

Kd (MfANGPTL3(17-170)-mmH): 21 nM
koff (MfANGPTL3(17-170)-mmH): 0.00432 s⁻¹
kon (MfANGPTL3(17-170)-mmH): 206000 M⁻¹ s⁻¹
t1/2 (MfANGPTL3(17-170)-mmH): 2.7 min
Kd (hANGPTL3(17-460)-His [1]): 67.5 nM
koff (hANGPTL3(17-460)-His [1]): 0.00494 s⁻¹
kon (hANGPTL3(17-460)-His [1]): 73200 M⁻¹ s⁻¹
t1/2 (hANGPTL3(17-460)-His [1]): 2.3 min
Kd (hANGPTL3(17-170)-His): 24 nM
koff (hANGPTL3(17-170)-His): 0.00672 s⁻¹
kon (hANGPTL3(17-170)-His): 280000 M⁻¹ s⁻¹
t1/2 (hANGPTL3(17-170)-His): 1.7 min
binding result [2]: no binding (tested: 1 uM)
Kd (hANGPTL3(17-460)-His [3]): 1.35 nM
koff (hANGPTL3(17-460)-His [3]): 0.000464 s⁻¹
kon (hANGPTL3(17-460)-His [3]): 344000 M⁻¹ s⁻¹
t1/2 (hANGPTL3(17-460)-His [3]): 25 min
Kd (hANGPTL3(17-169)-mFc): 0.659 nM
koff (hANGPTL3(17-169)-mFc): 0.000383 s⁻¹
kon (hANGPTL3(17-169)-mFc): 582000 M⁻¹ s⁻¹
t1/2 (hANGPTL3(17-169)-mFc): 30 min
B1: H4H1276S (antibody, IgG4, V domains shown)
VH: EVQLVESGGGVIQPGGSLRLSCAASGFTFDDYAMNWVRQGPGKGLEWVSAISGDGGSTYYADSVKGRFTISRDNSKNSLYLQMNSLRAEDTAFFYCAKDLRNTIFGVVIPDAFDIWGQGTMVTVSS
VL: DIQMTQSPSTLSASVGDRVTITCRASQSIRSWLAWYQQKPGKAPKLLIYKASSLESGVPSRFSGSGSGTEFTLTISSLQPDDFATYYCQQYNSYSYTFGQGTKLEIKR
